“And” between values parts separate entries of the source, which are not always exact repeats. Identical values can stand only once.
Target: BSA (UniProt P02769)
Assay: sandwich ELISA: plate coated with the antibody, BSA as negative sample, detection with sheep anti-HBsAg/peroxidase

BSA, sequence (P02769 25-607 limits assumed): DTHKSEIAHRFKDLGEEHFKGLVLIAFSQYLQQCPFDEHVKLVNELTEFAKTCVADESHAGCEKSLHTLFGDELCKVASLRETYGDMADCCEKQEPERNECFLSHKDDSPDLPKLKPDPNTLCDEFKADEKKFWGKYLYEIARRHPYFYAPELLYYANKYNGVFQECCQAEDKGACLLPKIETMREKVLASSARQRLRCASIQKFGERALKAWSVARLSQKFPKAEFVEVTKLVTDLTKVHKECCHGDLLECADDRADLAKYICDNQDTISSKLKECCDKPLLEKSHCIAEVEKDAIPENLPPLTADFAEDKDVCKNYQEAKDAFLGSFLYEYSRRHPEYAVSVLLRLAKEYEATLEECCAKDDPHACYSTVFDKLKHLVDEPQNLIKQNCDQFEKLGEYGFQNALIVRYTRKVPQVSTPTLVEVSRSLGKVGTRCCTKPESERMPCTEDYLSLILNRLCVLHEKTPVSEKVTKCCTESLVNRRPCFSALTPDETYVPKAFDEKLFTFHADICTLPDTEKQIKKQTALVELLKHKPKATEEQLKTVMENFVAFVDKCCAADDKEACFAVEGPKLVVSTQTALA

B1: the antibody of the present invention comprising a heavy-chain variable region having amino acid sequence of SEQ ID NO: 2 and a light-chain variable region … (antibody, V domains shown)
VH: EVQLVESGGGLVKPGGSLRLSCSASGFSLTKYKMTWVRQAPGKGLEWVSSISSTSRDIDYADSVKGRFTISRDNAKNSLFLQMSSLRVDDTAVYYCTRDGWLWGWDVRSNYYYNALDVWGQGTTVTVSS
VL: DIVVTQSPSSLSASVGDRVTITCRASQGIYNSIAWYQQKPGKAPKLLLYSTSTLLSGVPSRFSGSGSGTDYTLTITNLQPEDFATYYCQQYFVTPETFGQGTKLEIKR
In the case of B1, the A450 is reported as 0.251 A450 and 0.263 A450.
